Test results taken from patent US20180016620A1 (KITE PHARMA, published 2018).
No end group written: not given here.

Legend:
[1] = biological target: T1, SEQ ID NO: 497 SGKPGSGEGSTKG (also: biotin on N-terminus or on added C-terminal Lys, which not given here); assay: epitope mapping ELISA: antibody captured on Protein G plate, biotinylated peptide, streptavidin-HRP, chemiluminescence
T1 peptide: SGKPGSGEGSTKG
Procedure: (§1) The antibodies (i.e., antigen binding molecules) were epitope mapped via ELISA using the full length peptide, […] (SEQ ID NO:1), and variants truncated on either the N- or C-terminus and containing either a biotin moiety on the N-terminus, or a lysine residue with a biotin moiety on the C-terminus. The antibodies were captured in 96-well plate format using plates pre-coated with Protein G (Pierce). The plates were washed 6× in PBST buffer followed by incubation with target peptides. An additional 6× wash was performed with PBST and the antibodies were further incubated with streptavidin-HRP. Upon a final 6× wash in PBST, signal was detected and quantified via enhanced chemiluminescense kit (ECL, from GE Healthcare) and a Varioskan Flash plate reader (Thermo Fisher).

[2] = biological target: T2, SEQ ID NO: 489 GSGKPGSGEGSTKG (also: biotin on N-terminus or on added C-terminal Lys, which not given here); assay: as above
T2 peptide: GSGKPGSGEGSTKG
Procedure: as §1

[3] = biological target: T3, SEQ ID NO: 490 GKPGSGEGSTKG (also: biotin on N-terminus or on added C-terminal Lys, which not given here); assay: as above
T3 peptide: GKPGSGEGSTKG
Procedure: as §1

[4] = biological target: T4, SEQ ID NO: 496 GSTSGSGKPGSGE (also: biotin on N-terminus or on added C-terminal Lys, which not given here); assay: as above
T4 peptide: GSTSGSGKPGSGE
Procedure: as §1

[5] = biological target: T5, SEQ ID NO: 486 GSTSGSGKPGSGEG (also: biotin on N-terminus or on added C-terminal Lys, which not given here); assay: as above
T5 peptide: GSTSGSGKPGSGEG
Procedure: as §1

[6] = biological target: T6, SEQ ID NO: 485 GSTSGSGKPGSGEGST (also: biotin on N-terminus or on added C-terminal Lys, which not given here); assay: as above
T6 peptide: GSTSGSGKPGSGEGST
Procedure: as §1

[7] = biological target: T7, GSGKPGSGEGSTKG SEQ ID NO: 489 (also: biotin on N-terminus or on added C-terminal Lys, which not given here); assay: ELISA: antibody captured on Protein G plate, biotinylated peptide, streptavidin-HRP, chemiluminescence; y axis 0 to 7000000 without unit
T7 construct: also called 18 mer lacking its 4 N-terminal residues
T7 peptide: GSGKPGSGEGSTKG
Procedure: as §1

[8] = biological target: T8, GSTSGSGKPGSGEG SEQ ID NO: 486 (also: biotin on N-terminus or on added C-terminal Lys, which not given here); assay: as above
T8 construct: also called 18 mer lacking its 4 C-terminal residues
T8 peptide: GSTSGSGKPGSGEG
Procedure: as §1

[9] = biological target: T9, GSTSGSGKPGSGEGST SEQ ID NO: 485 (also: biotin on N-terminus or on added C-terminal Lys, which not given here); assay: as above
T9 construct: also called 18 mer lacking its 2 C-terminal residues
T9 peptide: GSTSGSGKPGSGEGST
Procedure: as §1

[10] = biological target: T10, full length 18 mer linker peptide GSTSGSGKPGSGEGSTKG (also: biotin on N-terminus or on added C-terminal Lys, which not given here); assay: as above
T10 construct: Synthetic linker peptide; also called full-length linker peptide; Whitlow linker
T10 peptide: GSTSGSGKPGSGEGSTKG
Procedure: as §1

FL_peptide_OVA = biological target: T11, FL_peptide_OVA (also: conjugated to ovalbumin, site and chemistry not given here); assay: ELISA as for the peptides of the figure; y axis 0 to 7000000 without unit
T11 construct: not shown: the ovalbumin carrier protein
T11 peptide: GSTSGSGKPGSGEGSTKG
Procedure: as §1

[11] = biological target: T12, SEQ ID NO: 498 KPGSGEGSTKG (also: biotin on N-terminus or on added C-terminal Lys, which not given here); assay: epitope mapping ELISA: antibody captured on Protein G plate, biotinylated peptide, streptavidin-HRP, chemiluminescence
T12 peptide: KPGSGEGSTKG
Procedure: as §1

[12] = biological target: T13, GKPGSGEGSTKG SEQ ID NO: 490 (also: biotin on N-terminus or on added C-terminal Lys, which not given here); assay: ELISA: antibody captured on Protein G plate, biotinylated peptide, streptavidin-HRP, chemiluminescence; y axis 0 to 7000000 without unit
T13 construct: also called 18 mer lacking its 6 N-terminal residues
T13 peptide: GKPGSGEGSTKG
Procedure: as §1

Measured: binding result

B1: Clone 8 anti-linker antibody (antibody, V domains shown)
VH: QSVEESGGRLVTPGTPLTLTCTASGFTISNLAIIWVRQAPGKGLEYIGDIDGRGDIYCATWAKGRFTISKTSTTLDLRFTSPTTEDTATYFCAVDGDGSGWGDFNFWGPGTLVTVSS
VL: AYDMTQTPASVEVAVGGTVSIKCQASQSISTALAWYQQKPGQPPKLLIYRASTLASGVSSRFKGSGSGTQFTLTISGVECDDAATYYCQQGWSTVNVDNVFGGGTEVVVRD
notes: Rabbit monoclonal from a hybridoma; also called Clone 8-4; 8-4
binds: [1] | [2] | [3] | [4] | [5] | [6] | [7] | [8] | [9] | [10] | FL_peptide_OVA

B2: Clone 16 anti-linker antibody (antibody, V domains shown)
VH: QSLEESGGRLVTPGTPLTLTCTVSGSDISSYHMGWVRQAPGKGLEYIGIIVSSGSAYYATWAKGRFTISRTSTTVDLKITSPTTEDSATYFCARNQYSGYGFSFWGPGTLVTVSS
VL: AVVLTQTPSPVSTAVGGTVTINCQSSHSVYYGDWLAWYQQKPGQPPKLLIYRASNLASGVPSRFKGSGSGTQFTLTISGVQCDDAATYYCLGGYDDDGETAFGGGTEVVVKD
notes: Rabbit monoclonal from a hybridoma; also called Clone 16-6; 16-6
binds: [1] | [2] | [3] | [11] | [4] | [5] | [6] | [7] | [8] | [9] | [12] | [10] | FL_peptide_OVA
